Source: US20220169740A1 (KINDRED BIOSCIENCES, published 2022)
Values joined by “and” are separate entries in the source; they are usually repeats but may differ in a detail not shown here. Equal values may be shown once.

T1: canine FcRn with a poly-His tag / canine B2M heterodimer complex (canine, biotinylated where immobilised on the Biacore chip)
T1 construct: Made in HEK cells, Ni-NTA purified; also called canine FcRn/B2M complex; soluble canine FcRn/B2M complex
T1 chain: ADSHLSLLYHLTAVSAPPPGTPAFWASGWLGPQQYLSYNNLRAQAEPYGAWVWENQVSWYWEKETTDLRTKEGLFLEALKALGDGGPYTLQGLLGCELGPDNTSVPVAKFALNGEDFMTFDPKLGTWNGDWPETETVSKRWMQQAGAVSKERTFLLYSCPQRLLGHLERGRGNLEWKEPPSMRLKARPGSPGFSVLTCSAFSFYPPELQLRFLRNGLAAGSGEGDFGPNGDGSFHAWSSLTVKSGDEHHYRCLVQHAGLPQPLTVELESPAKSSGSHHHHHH
T1 b2m: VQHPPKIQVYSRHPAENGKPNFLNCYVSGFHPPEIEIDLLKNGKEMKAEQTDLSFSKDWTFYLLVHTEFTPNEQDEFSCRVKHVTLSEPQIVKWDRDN


What was measured:
human C1q = human C1q (human, UniProt P02745 23-245; P02746 28-253; P02747 29-245); experiment: method not described
[1] = molecular target: T1, canine FcRn with a poly-His tag / …; experiment: SPR (Biacore T200), pH 6.0; biotinylated canine FcRn/B2M complex immobilised, Fc polypeptide as analyte
Description: The koff of each of the lead variant canine IgG-B polypeptides was further investigated. Biotinylated canine FcRn/B2M complex was immobilized on a Biacore chip and exposed to each variant canine IgG-B polypeptide as an analyte using a Biacore T200 at pH 6.0.

[2] = molecular target: T1, canine FcRn with a poly-His tag / …; experiment: SPR (Biacore T200), steady state, 25 C, pH 6.0; SASA-tagged Fc polypeptide immobilised on CM5 chip, canine FcRn/B2M complex 12.5-200 nM as analyte
Method: Binding analysis was performed using a Biacore T200. Briefly, the lead variant canine IgG-B Fc polypeptides with an SASA tag were each immobilized to a Series S Sensor Chip CM5. […] A running buffer of 10 mM HEPES, 500 mM NaCl, 3 mM EDTA, 0.005% Tween-20, pH 6.0 was used. A buffer only blank curve was used as a control.

[3] = molecular target: T2, human NGF (Sino Biological, Inc.; Catalog No. 11050-HNAC) (human, UniProt P01138 122-241, limits assumed, biotinylated in the Octet assay of Example 3 (sites not given); not biotinylated in the TF1 assay); experiment: BLI (Octet); biotinylated human NGF on streptavidin tips, TrkA-Fc 25 ug/mL; 1:1 fit
T2 construct: also called nerve growth factor; biotinylated NGF
Method: Binding activity of canine, feline, and equine TrkA ECD v2 and v3 fusion polypeptides prepared in Example 2 (SEQ ID NOs: 16, 17, 19, 20, 22, and 23) to commercially-available human NGF was considered. The binding analysis was performed using a biosensor Octet as follows. Briefly, human NGF (Sino Biological, Inc.; Catalog No. 11050-HNAC) was biotinylated. The free unreacted biotin was removed from biotinylated NGF by extensive dialysis. Biotinylated NGF was captured on streptavidin sensor tips. The association of NGF with TrkA-Fc (25 ug/mL) was monitored for 600 seconds. Dissociation was monitored for 600 seconds. A buffer only blank curve was subtracted to correct for any drift. The data were fit to a 1:1 binding model using ForteBio™ data analysis software to determine the kₒₙ, koff, and the Kd. The buffer for dilutions and all binding steps was: 20 mM phosphate, 150 mM NaCl, pH 7.2.
FIG. 1 and FIG. 2 are sensorgrams showing that canine, feline, and equine TrkA ECD v2 and v3 fusion polypeptides all bind NGF. […] Irrelevant canine and feline IgG-Fc fusion proteins were used as a negative control.

T2 sequence (P01138 122-241 limits assumed): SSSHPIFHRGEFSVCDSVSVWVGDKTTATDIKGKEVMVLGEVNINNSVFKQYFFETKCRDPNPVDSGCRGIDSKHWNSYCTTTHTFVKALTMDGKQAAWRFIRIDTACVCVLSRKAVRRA
human C1q, sequence (P02745 23-245 limits assumed, chain 1 of 3): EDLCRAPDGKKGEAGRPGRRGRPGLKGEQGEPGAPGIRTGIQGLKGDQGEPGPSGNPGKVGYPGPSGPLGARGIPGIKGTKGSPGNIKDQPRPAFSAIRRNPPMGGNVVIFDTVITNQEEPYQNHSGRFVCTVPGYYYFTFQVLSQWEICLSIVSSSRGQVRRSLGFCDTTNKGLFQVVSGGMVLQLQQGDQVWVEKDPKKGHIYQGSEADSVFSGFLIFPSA
human C1q, sequence (P02746 28-253 limits assumed, chain 2 of 3): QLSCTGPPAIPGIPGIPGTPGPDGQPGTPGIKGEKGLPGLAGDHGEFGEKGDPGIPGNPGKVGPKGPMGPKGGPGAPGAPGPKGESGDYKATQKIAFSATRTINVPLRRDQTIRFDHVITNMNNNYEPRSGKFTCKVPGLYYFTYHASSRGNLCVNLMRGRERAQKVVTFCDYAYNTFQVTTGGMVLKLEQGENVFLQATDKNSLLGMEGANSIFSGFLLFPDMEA
human C1q, sequence (P02747 29-245 limits assumed, chain 3 of 3): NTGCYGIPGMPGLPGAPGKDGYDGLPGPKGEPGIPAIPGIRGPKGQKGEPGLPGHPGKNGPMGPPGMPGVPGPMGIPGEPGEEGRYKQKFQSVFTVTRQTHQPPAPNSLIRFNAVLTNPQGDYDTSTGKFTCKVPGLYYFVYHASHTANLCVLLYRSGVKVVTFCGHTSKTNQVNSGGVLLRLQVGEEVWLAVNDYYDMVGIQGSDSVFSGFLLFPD

Binder	koff [1]	Kd [2]	Kd [3]	also measured
fusion protein comprising wild-type canine IgG-B Fc (Fc fusion, not shown: large carriers) PAPEMLGGPSVFIFPPKPKDTLLIARTPEVTCVVVDLDPEDPEVQISWFVDGKQMQTAKTQPREEQFNGTYRVVSVLPIGHQDWLKGKQFTCKVNNKALPSPIERTISKARGQAHQPSVYVLPPSREELSKNTVSLTCLIKDFFPPDIDVEWQSNGQQEPESKYRTTPPQLDEDGSYFLYSKLSVDKSRWQRGDTFICAVMHEALHNHYTQESLSHSPGK				binding result (human C1q): binds
wild-type canine IgG-B Fc polypeptide (other, Expressed from plasmid pFASEBA in E. coli with an SASA tag; also called wildtype IgG-B Fc polypeptide; not shown: SASA tag) PAPEMLGGPSVFIFPPKPKDTLLIARTPEVTCVVVDLDPEDPEVQISWFVDGKQMQTAKTQPREEQFNGTYRVVSVLPIGHQDWLKGKQFTCKVNNKALPSPIERTISKARGQAHQPSVYVLPPSREELSKNTVSLTCLIKDFFPPDIDVEWQSNGQQEPESKYRTTPPQLDEDGSYFLYSKLSVDKSRWQRGDTFICAVMHEALHNHYTQESLSHSPGK	0.122 s⁻¹	1.25 µM		
variant canine IgG-B Fc polypeptide L(23)F (other, E. coli expressed, with SASA tag; also called F00; not shown: SASA tag) PAPEMLGGPSVFIFPPKPKDTLFIARTPEVTCVVVDLDPEDPEVQISWFVDGKQMQTAKTQPREEQFNGTYRVVSVLPIGHQDWLKGKQFTCKVNNKALPSPIERTISKARGQAHQPSVYVLPPSREELSKNTVSLTCLIKDFFPPDIDVEWQSNGQQEPESKYRTTPPQLDEDGSYFLYSKLSVDKSRWQRGDTFICAVMHEALHNHYTQESLSHSPGK	0.0631 s⁻¹ and 0.0847 s⁻¹	0.367 µM		
variant canine IgG-B Fc polypeptide YTE (other, not shown: small tags and cut ends, also called Leu23Tyr Ala25Thr Thr27Glu) PAPEMLGGPSVFIFPPKPKDTLYITREPEVTCVVVDLDPEDPEVQISWFVDGKQMQTAKTQPREEQFNGTYRVVSVLPIGHQDWLKGKQFTCKVNNKALPSPIERTISKARGQAHQPSVYVLPPSREELSKNTVSLTCLIKDFFPPDIDVEWQSNGQQEPESKYRTTPPQLDEDGSYFLYSKLSVDKSRWQRGDTFICAVMHEALHNHYTQESLSHSPGK		0.0862 µM		
variant canine IgG-B Fc polypeptide L(23)M (other, not shown: SASA tag) PAPEMLGGPSVFIFPPKPKDTLMIARTPEVTCVVVDLDPEDPEVQISWFVDGKQMQTAKTQPREEQFNGTYRVVSVLPIGHQDWLKGKQFTCKVNNKALPSPIERTISKARGQAHQPSVYVLPPSREELSKNTVSLTCLIKDFFPPDIDVEWQSNGQQEPESKYRTTPPQLDEDGSYFLYSKLSVDKSRWQRGDTFICAVMHEALHNHYTQESLSHSPGK	0.126 s⁻¹	0.406 µM		
variant canine IgG-B Fc polypeptide L(23)Y (other, E. coli expressed, with SASA tag; also called Y00; not shown: SASA tag) PAPEMLGGPSVFIFPPKPKDTLYIARTPEVTCVVVDLDPEDPEVQISWFVDGKQMQTAKTQPREEQFNGTYRVVSVLPIGHQDWLKGKQFTCKVNNKALPSPIERTISKARGQAHQPSVYVLPPSREELSKNTVSLTCLIKDFFPPDIDVEWQSNGQQEPESKYRTTPPQLDEDGSYFLYSKLSVDKSRWQRGDTFICAVMHEALHNHYTQESLSHSPGK	0.0138 s⁻¹	0.113 µM		
variant canine IgG-B polypeptide L(23)S (other, not shown: SASA tag) PAPEMLGGPSVFIFPPKPKDTLSIARTPEVTCVVVDLDPEDPEVQISWFVDGKQMQTAKTQPREEQFNGTYRVVSVLPIGHQDWLKGKQFTCKVNNKALPSPIERTISKARGQAHQPSVYVLPPSREELSKNTVSLTCLIKDFFPPDIDVEWQSNGQQEPESKYRTTPPQLDEDGSYFLYSKLSVDKSRWQRGDTFICAVMHEALHNHYTQESLSHSPGK	0.241 s⁻¹			
fusion protein comprising variant canine IgG-B Fc K(93)R (Fc fusion, not shown: large carriers, also called variant canine IgG-B Fc K(93)R fusion protein) PAPEMLGGPSVFIFPPKPKDTLLIARTPEVTCVVVDLDPEDPEVQISWFVDGKQMQTAKTQPREEQFNGTYRVVSVLPIGHQDWLKGKQFTCRVNNKALPSPIERTISKARGQAHQPSVYVLPPSREELSKNTVSLTCLIKDFFPPDIDVEWQSNGQQEPESKYRTTPPQLDEDGSYFLYSKLSVDKSRWQRGDTFICAVMHEALHNHYTQESLSHSPGK				binding result (human C1q): binds
Canine TrkA ECD v3-wildtype canine IgG-B Fc (Fc fusion, CHO; also called canine TrkA ECD v3 fusion polypeptide; canine TrkA v3) VSFPASVQLHEAVELHHWCIPFSVDGQPAPSLRWLFNGSVLNETSFIFTEFLEPVANETVRHGCLRLNQPTHVNNGNYTLLAANPSGRAAAFVMAAFMDNPSGGGSGGGSRPPDCPKCPAPEMLGGPSVFIFPPKPKDTLLIARTPEVTCVVVDLDPEDPEVQISWFVDGKQMQTAKTQPREEQFNGTYRVVSVLPIGHQDWLKGKQFTCKVNNKALPSPIERTISKARGQAHQPSVYVLPPSREELSKNTVSLTCLIKDFFPPDIDVEWQSNGQQEPESKYRTTPPQLDEDGSYFLYSKLSVDKSRWQRGDTFICAVMHEALHNHYTQESLSHSPGK			~0.001 µM	
Canine TrkA ECD v2-wildtype canine IgG-B Fc (Fc fusion, made in CHO cells; also called canine TrkA ECD v2 fusion polypeptide; canine TrkA v2) VSFPASVQLHEAVELHHWCIPFSVDGQPAPSLRWLFNGSVLNETSFIFTEFLEPVANETVRHGCLRLNQPTHVNNGNYTLLAANPSGRAAAFVMAAFMDNPFEFNPEDPIPVSFSPVDTNSTSGDSGGGSGGGSRPPDCPKCPAPEMLGGPSVFIFPPKPKDTLLIARTPEVTCVVVDLDPEDPEVQISWFVDGKQMQTAKTQPREEQFNGTYRVVSVLPIGHQDWLKGKQFTCKVNNKALPSPIERTISKARGQAHQPSVYVLPPSREELSKNTVSLTCLIKDFFPPDIDVEWQSNGQQEPESKYRTTPPQLDEDGSYFLYSKLSVDKSRWQRGDTFICAVMHEALHNHYTQESLSHSPGK			~0.001 µM	
Equine TrkA ECD v3-variant equine IgG2 Fc (Protein A+, C1q-, CD16-) (Fc fusion, CHO; also called equine TrkA ECD v3 fusion polypeptide; equine TrkA v3) VSFPASVHLQTAVEQHHWCIPFSVDGQPAPTLRWLFNGSVLNETSFIFTEFLESAANETMRHGCLRLNQPTHVNNGNYTLLATNPYGQDSASVMVAFMDNPPPCVLSAEGVIPIPSVPKPQCPPYTHSKFLGGPSVFIFPPNPKDTLMISRTPVVTCVVVNLSDQYPDVQFSWYVDNTEVHSAITKQREAQFNSTYRVVSVLPIQHQDWLSGKEFKCSVTNVGVPQPISRAISRGKGPSRVPQVYVLPPHPDELAKSKVSVTCLVKDFYPPDISVEWQSNRWPELEGKYSTTPAQLDGDGSYFLYSKLSLETSRWQQVESFTCAVMHEALHNHYTKTDISESLGK			~0.001 µM	
Feline TrkA ECD v3-wildtype feline IgG2 Fc (Fc fusion, CHO; also called feline TrkA ECD v3 fusion polypeptide; feline TrkA v3) VSFPASVQLHAAVELHHWCIPFSVDGQPAPSLRWLFNGSVLNETSFIFTEFLEPAANETVRHGCLRLNQPTHVNNGNYTLLAANPSGRAAASVLAAFMDNPSGGGSGGGSPKTASTIESKTGEGPKCPVPEIPGAPSVFIFPPKPKDTLSISRTPEVTCLVVDLGPDDSNVQITWFVDNTEMHTAKTRPREEQFNSTYRVVSVLPILHQDWLKGKEFKCKVNSKSLPSAMERTISKAKGQPHEPQVYVLPPTQEELSENKVSVTCLIKGFHPPDIAVEWEITGQPEPENNYQTTPPQLDSDGTYFLYSRLSVDRSHWQRGNTYTCSVSHEALHSHHTQKSLTQSPGK			~0.001 µM	
Feline TrkA ECD v2-wildtype feline IgG2 Fc (Fc fusion, CHO; also called feline TrkA ECD v2 fusion polypeptide; feline TrkA v2) VSFPASVQLHAAVELHHWCIPFSVDGQPAPSLRWLFNGSVLNETSFIFTEFLEPAANETVRHGCLRLNQPTHVNNGNYTLLAANPSGRAAASVLAAFMDNPFEFNPEDPIPVSFSPVDSNSTSGDSGGGSGGGSPKTASTIESKTGEGPKCPVPEIPGAPSVFIFPPKPKDTLSISRTPEVTCLVVDLGPDDSNVQITWFVDNTEMHTAKTRPREEQFNSTYRVVSVLPILHQDWLKGKEFKCKVNSKSLPSAMERTISKAKGQPHEPQVYVLPPTQEELSENKVSVTCLIKGFHPPDIAVEWEITGQPEPENNYQTTPPQLDSDGTYFLYSRLSVDRSHWQRGNTYTCSVSHEALHSHHTQKSLTQSPGK			~0.001 µM	
